Laboratory results reported in US10995119B2, “Peptide exhibiting hydrolytic activity and use thereof” (Okinawa Institute of Science and Technology School …, priority 2016, dated 2021).

Tests used:
Aβ28-42 = Aβ28-42 (Homo sapiens, UniProt P05067); test: Hydrolysis activity against Aβ28-42; type: biochemical
Aβ1-20 = Aβ1-20 (Homo sapiens, UniProt P05067); test: Hydrolysis activity against Aβ1-20
Description: (§4) Further, any change in activity caused by addition of human serum albumin (HSA, Wako Pure Chemical Industries, Ltd., final concentration 0.025%) also was measured.
(§5) As substrates, Aβ42 in the form of soluble powder (authentic sample, Peptide Institute Inc.) and fragment peptides thereof, namely, Aβ1-20, Aβ11-29, and soluble Aβ28-42, were used. […] In the case of MS analysis, the MS analysis was performed after applying 20 μl of the reaction solution to HPLC and collecting an aliquot of the peak.
(§6) The present experiment examined activity against Aβ-Fs in Example 7.
(§7) As substrates, the same Aβ1-20 and Aβ11-29 as used in Example 7 were used.

[1] = target: soluble Aβ1-42 (Aβ42 authentic sample) (Homo sapiens, UniProt P05067); test: Hydrolysis activity against soluble Aβ1-42 (authentic sample)
Description: as §5
Aβ42 was used as a substrate. […] In the case of MS analysis, the MS analysis was performed after applying 20 μl of the reaction solution after the reaction for 7 days to HPLC and collecting an aliquot of the peak.

Aβ42 = Aβ42 (Homo sapiens, UniProt P05067); test: Intermolecular interaction with Aβ42 (AFFINX QNμ); type: binding; conditions: JAL-TA9 immobilized on platinum electrode
Excerpt: (§1) Intermolecular interactions of JAL-TA9 with Aβ42 and with Aβ-F were examined using an AFFINX QNμ (trade name, INITIUM, Inc.) in accordance with its protocol. The results obtained are shown in the graphs of FIG. 40. In FIG. 40, X indicates the result obtained when JAL-TA9 was not immobilized on a platinum electrode, and Y indicates the result obtained when JAL-TA9 was immobilized on the platinum electrode.

Aβ11-29 [2] = target: T1, Aβ11-29 (Homo sapiens, UniProt P05067); test: Intermolecular interaction with Aβ11-29 (AFFINX QNμ); type: binding; conditions: JAL-TA9 immobilized on platinum electrode
Excerpt: as §1

αA-crystallin = target: T2, αA-crystallin (Homo sapiens, UniProt P02489); test: Degradation of αA-crystallin 71-88 fragment peptide; type: biochemical
T2 construct: consisting of 71-88 residues of αA-crystallin; made in house; host or cells: chemical synthesis (Setsunan University)
Excerpt: As a substrate, a fragment peptide with the following sequence consisting of 71-88 residues of αA-crystallin (synthesized in Setsunan University) was used.

Aβ11-29 [3] = target: T1, Aβ11-29; test: Hydrolysis activity against Aβ11-29
Description: as §4, §5
As a substrate, Aβ11-29, which is a fragment peptide of Aβ42, was used. […] In the case of MS analysis, the MS analysis was performed after applying 20 μl of the reaction solution after the reaction for 6 days to HPLC and collecting an aliquot of the peak.
as §6
The reaction solution V shown in FIG. 52 was incubated at 37° C. for a predetermined time, and autodigestion of ANA-YA4 (YRMI) and cleavage of Aβ11-29 were examined.
A reaction solution VI shown in FIG. 52 was incubated at 37° C. for a predetermined time, and cleavage of Aβ1-20 and Aβ11-29 by ANA-SA5 was examined.
as §7
The present example examined autodigestion and activity against Aβ-F of JAL 12-17 (YKGSGF) and JAL 12-16 (YKGSG). […] As a substrate, the same Aβ11-29 as used in Example 7 was used. The autodigestion was examined by causing the reaction in the same manner, except that the substrate was not added.

solid (insoluble) Aβ1-42 = solid (insoluble) Aβ1-42 (Homo sapiens, UniProt P05067); test: Hydrolysis activity against solid (insoluble) Aβ1-42
Description: As a solid substrate, a crystal of Aβ42 was used. […] In the case of MS analysis, the MS analysis was performed after applying 100 μl of the reaction solution to HPLC and collecting an aliquot of the peak.

Aβ1-20 and Aβ11-29 = test: Reaction rates / Km for Aβ1-20 and Aβ11-29; type: biochemical; conditions: Aβ-F 0.05, 0.2 or 0.4 mmol/l, 0 or 1 hour
Description: HPLC was performed with the Aβ-F concentration in a reaction solution being set to 0.05, 0.2, or 0.4 mmol/l and a reaction time being set to 0 hours or 1 hour. Then, on the basis of the reduction rate of the peak of each Aβ-F, the Km value was determined.

[4] = Autodigestion of the catalytic peptide (HPLC, MS); type: biochemical
Description: First, to a buffer solution (Tris-HCl, pH 6.5, final concentration: 100 mmol/l), JAL (final concentration: 0.2 mmol/l) and the fragment peptide of hMMP7 (final concentration 0.05 mmol/l) were added. […] Thereafter, the reaction solution was subjected to HPLC, and the peaks of JAL and the fragment peptide of hMMP7 were examined. HPLC was performed under the following conditions.
Next, the mechanism of autodigestion was examined using various mutants of JAL as hydrolytic peptides. To a reaction solution containing each of the mutants of JAL, a protease inhibitor (trade name: Roche cOmplete, Roche) was added to cause a reaction. One tablet of the protease inhibitor was dissolved in 1 ml of Milli-Q water, and then, 50 μl of the resultant mixture was added to the reaction solution. […] As a result, the autodigestion of all the peptides subjected to the measurement was inhibited (FIG. 16).
Autodigestion in Box B was examined.
JAL-TA9 was reacted in the same manner except that a substrate was not added to examine the autodigestion of JAL-TA9.
The influence of an inhibitor on autodigestion of JAL-TA9 was examined. […] As the protease inhibitor, the serine protease inhibitor AEBSF, which inhibited the autodigestion of JAL 12-22 C19M in the item (6) in Example 4, was used.

Tau MBD 1-30 = Tau MBD 1-30 (Homo sapiens, UniProt P10636); test: Hydrolysis activity against Tau MBD 1-30; type: biochemical
Excerpt: As a substrate, a Tau microtubule binding domain (MBD)-derived fragment (Tau MBD1-30) was used.

SOD1 2-12 = SOD1 2-12 (Homo sapiens, UniProt P00441); test: Hydrolysis activity against SOD1 2-12; type: biochemical; conditions: Example 3 (1); substrate SOD1 2-38 or SOD1 2-12
Excerpt: (§2) In JAL 1-22 C19M and JAL 7-22 C19M, Cys residues contained in JAL form S—S bonds during a reaction, and this makes fragment analysis difficult. On this account, JAL 1-22 and JAL 7-22 were modified so as to substitute Cys residues by Met.

[5] = target: T3, bovine serum albumin (BSA) (Bos taurus, UniProt P02769); test: Cleavage of BSA as substrate; type: biochemical; conditions: BSA 0.025%
T3 construct: purchased Wako Pure Chemical Industries, Ltd
Description: (§3) On the other hand, by adding either HSA or BSA to the reaction solution, autodigestion of JAL 7-22 C 19M was […]. […] Since serum albumin is present in the body, it is considered that the hydrolytic peptide is suitable for use in the body. In experiments to be described below, the hydrolysis activity of JAL was measured in a reaction solution containing HSA.

SOD1 2-38 = SOD1 2-38 (Homo sapiens, UniProt P00441); test: Hydrolysis activity against SOD1 2-38; type: biochemical; conditions: Example 3 (1); substrate SOD1 2-38 or SOD1 2-12
Description: As a control, physiological saline (0.9 w/v %) was used instead of the buffer solution. […] Also, it is considered that physiological saline is suitable for storage of JAL before use, for example.
Next, an experiment was conducted to consider an optimal pH for activity using JAL as the hydrolytic peptide and SOD1 2-38 as a substrate.
Metal ions to be added to a reaction solution were Zn^2+, Ca^2+, Co^2+, or combinations thereof. The concentrations of the metal ions in the respective reaction solutions were as follows: 10 mmol/l for Ca^2+; and 5 μmol/l for the other metal ions.
as §2

[6] = target: T4, human serum albumin (HSA) (Homo sapiens, UniProt P02768); test: Cleavage of HSA as substrate; type: biochemical; conditions: HSA 0.025%
T4 construct: purchased Wako Pure Chemical Industries, Ltd
Description: as §3

[7] = reaction solution composition 1 (PBS, HSA), 37° C., overnight

Chain of Tau MBD 1-30 (P10636 609-638 limits assumed): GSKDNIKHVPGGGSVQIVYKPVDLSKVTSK
T3 sequence (P02769 25-607): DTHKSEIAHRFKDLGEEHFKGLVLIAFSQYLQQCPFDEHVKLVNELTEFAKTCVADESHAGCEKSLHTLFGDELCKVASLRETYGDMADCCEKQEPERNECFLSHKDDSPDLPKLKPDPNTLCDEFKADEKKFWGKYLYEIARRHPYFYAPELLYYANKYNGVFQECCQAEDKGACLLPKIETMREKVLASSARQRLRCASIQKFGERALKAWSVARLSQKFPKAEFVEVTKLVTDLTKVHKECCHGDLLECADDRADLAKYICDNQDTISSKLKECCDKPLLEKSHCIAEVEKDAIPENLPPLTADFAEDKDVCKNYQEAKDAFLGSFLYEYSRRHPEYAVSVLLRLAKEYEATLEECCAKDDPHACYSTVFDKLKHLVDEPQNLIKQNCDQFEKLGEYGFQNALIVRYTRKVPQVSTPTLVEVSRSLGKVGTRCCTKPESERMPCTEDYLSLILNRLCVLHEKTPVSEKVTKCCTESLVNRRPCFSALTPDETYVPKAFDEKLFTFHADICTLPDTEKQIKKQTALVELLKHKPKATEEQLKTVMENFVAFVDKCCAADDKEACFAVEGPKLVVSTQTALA
Chain of SOD1 2-38 (P00441 2-38 limits assumed): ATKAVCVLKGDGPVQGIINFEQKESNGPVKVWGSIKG

In the case of PYKGSGFRMI [JAL-TA9], the “cleavage sites in Aβ-Fs (MS)” value (Aβ28-42; Example 7) is reported as “cleaved at a plurality of sites”, the “degradation of Aβ-Fs (HPLC)” value (Aβ28-42; [7]) is reported as “degraded all the Aβ-Fs” and the “cleavage sites in Aβ-Fs (MS)” value (Aβ1-20; Example 7) is reported as “cleaved at a plurality of sites”. For the same sequence, the “degradation of Aβ-Fs (HPLC)” value (Aβ1-20; [7]) was “degraded all the Aβ-Fs”, the “degradation of Aβ42 (HPLC)” value ([1]; authentic sample Aβ42, reaction solution composition 1) was “degraded both types of Aβ42” and the “cleavage sites in Aβ42 (MS)” value ([1]; soluble authentic sample, 7 days) was “cleaved at a plurality of sites”. For the same sequence, the “region of Aβ42 cleaved” value ([1]; summary of cleavage sites, FIG. 39) was “strong cleavage activity was exhibited against an intermediate region of Aβ42”, the intermolecular interaction (Aβ42) was “strong interaction” and the intermolecular interaction (Aβ11-29 [2]) was “strong interaction”. For the same sequence, the “fragment identification by MS” value (αA-crystallin) was “fragments of αA-crystallin resulting from the cleavage by JAL-TA9 were detected”, the “degradation of αA-crystallin” value (αA-crystallin; JAL-TA9 0.2 mmol/l, PBS, HSA, reaction for 1 day) was “could degrade αA-crystallin” and the “cleavage sites in Aβ-Fs (MS)” value (Aβ11-29 [3]; Example 7) was “cleaved at a plurality of sites”. For the same sequence, the “degradation of Aβ-Fs (HPLC)” value (Aβ11-29 [3]; [7]) was “degraded all the Aβ-Fs”, the “cleavage of solid Aβ42 (MS)” value (solid (insoluble) Aβ1-42; solid Aβ42) was “activity against the solid Aβ42 also was observed” and the “degradation of Aβ42 (HPLC)” value (solid (insoluble) Aβ1-42; solid Aβ42, reaction solution composition 2) was “degraded both types of Aβ42”. For the same sequence, the “Km value, affinity of substrate to peptide” value (Aβ1-20 and Aβ11-29) was “Aβ11-29 has higher affinity to JAL-TA9 than Aβ1-20”, the “autodigestion in presence of protease inhibitor” value ([4]; AEBSF 6 mmol/l) was “autodigestion was inhibited” and the autodigestion ([4]; Example 7, substrate not added) was “autodigestion of JAL-TA9 was observed”. The autodigestion ([4]; Example 13, with αA-crystallin fragment) was “digested itself”, the “autodigestion in presence of protease inhibitor” value ([4]; reaction solution IV, 6 hours) was “inhibited by the protease inhibitor” and the “fragment identification by MS” value (Tau MBD 1-30; reaction for 1 day) was “fragments of Tau MBD 1-30 resulting from the cleavage by JAL-TA9”. The “fragment identification by MS” value (Tau MBD 1-30; reaction for 5 days) was “fragments of Tau MBD 1-30 resulting from the cleavage by JAL-TA9” and the “degradation of Tau MBD 1-30 (HPLC)” value (Tau MBD 1-30; reaction solution composition 3, 37° C., overnight) was “degraded Tau MBD 1-30”.

With YPEKPYKGSGFRMIHI [JAL 7-22 C19M] the “hydrolysis activity of JAL mutants” value (SOD1 2-12) was “exhibited hydrolysis activity”, the “hydrolysis activity against Aβ1-20” value (Aβ1-20; Example 3 (2), (6)) was “exhibited activity” and the “cleavage of albumin as substrate” value [5] was “cleavage by JAL was not observed”. For the same sequence, the “hydrolysis activity of JAL mutants” value (SOD1 2-38) was “exhibited hydrolysis activity”, the “cleavage of albumin as substrate” value [6] was “cleavage by JAL was not observed” and the “autodigestion in presence of protease inhibitor” value ([4]; HSA added, Roche cOmplete or AEBSF) was “fragments generated by autodigestion disappeared”. The “autodigestion, effect of albumin” value ([4]; HSA or BSA (0.025%) added) was “enhanced”.
